Laboratory results published in US20260193679A1, “SYSTEMS AND METHODS FOR MODIFYING A POLYNUCLEOTIDE” (The Children's Medical Center Corporation, priority 2023, published 2026).

Key:
[1] = system: ATP1A1; test: Prime editing at ATP1A1 (Q118R) in CD34+ HSPCs; PE and indels quantified by BEAT/TIDE (Sanger) or CRISPResso2 (amplicon sequencing); assay type: cell-based, human; conditions: for PE2max efficiency: compared to two substitutions (v1), no nicking sgRNA
[2] = system: B2M; test: Prime editing at B2M in CD34+ HSPCs; assay type: cell-based, human; conditions: PE2max; average, three donors; amplicon sequencing
From the text: FIGS. 6A-6D provide schematics and plots showing that modulation of nucleotide metabolism positively interacts with MMR evasion. (FIG. 6A) PE and indel quantification as determined by CRISPResso2 analysis from amplicon sequencing. The MMR evasion strategy based on the installation of additional silent mutations and the epegRNAs used to target the ATP1A1 locus are illustrated. Point mutations are illustrated in orange. 2.5×10^5 HSPCs were electroporated with PE2max RNAs targeting ATP1A1 and cultured in the presence or absence of 50 μM each dN and 25× in-house Vpx VLPs. Genomic DNA was harvested 3 days post-nucleofection. Data are plotted as mean±SEM from n=3 independent biological replicates performed with CD34^+ HSPCs from three different donors. (FIG. 6B) Same as in (FIG. 6A), but HSPCs were electroporated with Vpx mRNA and PE2max RNAs targeting B2M. Data are plotted as mean±SEM from n=3 independent biological replicates performed with CD34^+ HSPCs from three different donors. (FIG. 6C) Same as in (FIG. 6B), but HSPCs were electroporated with Vpx mRNA and PE3max RNAs targeting the HBG1/HBG2 promoters. […]
FIGS. 10A-10C provide a schematic and plots showing that modulation of nucleotide metabolism positively interacts with MMR-evading epegRNAs in quiescent HSPCs. […] (FIG. 10B) PE and indels quantification as determined by BEAT and TIDE analysis from Sanger sequencing. […]

In the case of “PE2: first-generation prime editor mRNA, SEQ ID NO: 67 [reference compound]”, the “frequency of alleles harboring the ATP1A1-Q118R mutation” value ([1]; PE2 mRNA + epegRNA/nicking sgRNA, absence of VPX VLPs, average, two donors, Sanger sequencing) is reported as 17%.

With “PEmax: PEmax prime editor mRNA, SEQ ID NO: 68 [reference compound]” the “basal level of editing, ATP1A1-Q118R allele frequency” value ([1]; PEmax mRNA (PE3max RNAs), no dNs, average, three donors) was 41%.

B1: ATP1A1-Q118R_v2 epegRNA: synthetic epegRNA, SEQ ID NO: 7; three substitutions, optimized to evade MMR (nucleic acid)
guide: GUUCCUCUUCUGUAGCAGCUGUUUUAGAGCUAGAAAUAGCAAGUUAAAAUAAGGCUAGUCCGUUAUCAACUUGAAAAAGUGGCACCGAGUCGGUGCUAGCAUCAGGGCUGCUACAGAAGAGCGCGGUUCUAUCUAGUUACGCGUUAAACCAACUAGAAUUU
modifications: modified_base 1 OTHER; 2'-O-methyl modified nucleotide with phosphorothioate linkage; modified_base 2 OTHER; modified_base 3 OTHER; modified_base 158 OTHER; Nucleotide with phosphorothioate linkage; modified_base 159 OTHER; 2'-O-methyl modified nucleotide with phosphorothio
notes: three substitutions, optimized to evade MMR
B1 was tested, and the PE2max efficiency [1] was “marked increase” and the “level of improvement by Vpx mRNA co-delivery and dN supplementation” value ([1]; quiescent HSPCs, compared with HBB and B2M epegRNAs) was “highest level of improvement”.

B2: v3 epegRNA: synthetic epegRNA, SEQ ID NO: 8; four substitutions (+3 TTGG to CCTA) (nucleic acid)
guide: GUUCCUCUUCUGUAGCAGCUGUUUUAGAGCUAGAAAUAGCAAGUUAAAAUAAGGCUAGUCCGUUAUCAACUUGAAAAAGUGGCACCGAGUCGGUGCUAGCAUUAGGGCUGCUACAGAAGAGCGCGGUUCUAUCUAGUUACGCGUUAAACCAACUAGAAUUU
modifications: modified_base 1 OTHER; 2'-O-methyl modified nucleotide with phosphorothioate linkage; modified_base 2 OTHER; modified_base 3 OTHER; modified_base 158 OTHER; Nucleotide with phosphorothioate linkage; modified_base 159 OTHER; 2'-O-methyl modified nucleotide with phosphorothio
For B2, the “precise prime editing allele frequency” value ([1]; PE2max, without Vpx VLPs and dNs, average, amplicon sequencing) was 20.1% and the PE2max efficiency [1] was “marked increase”.

B3: original B2M epegRNA: synthetic epegRNA to knockout B2M, single nucleotide substitution; SEQ ID NO: 12 (nucleic acid)
guide: GAGUAGCGCGAGCACAGCUAGUUUUAGAGCUAGAAAUAGCAAGUUAAAAUAAGGCUAGUCCGUUAUCAACUUGAAAAAGUGGCACCGAGUCGGUGCUCCGUGGCCUGAGCUGUGCUCGCGCCGCGGUUCUAUCUAGUUACGCGUUAAACCAACUAGAAUUU
modifications: modified_base 1 OTHER; 2'-O-methyl modified nucleotide with phosphorothioate linkage; modified_base 2 OTHER; modified_base 3 OTHER; modified_base 158 OTHER; Nucleotide with phosphorothioate linkage; modified_base 159 OTHER; 2'-O-methyl modified nucleotide with phosphorothio
B3 was tested, and the PE efficiency [2] was 2%.
